We go through 8 molecules from paper PMC3615140 (Molecular cell, 2013).

The target of assay [1] is T1, FLAG-Set1 (full length) (S. cerevisiae, UniProt P38827 1-1080).
T1 sequence (looked up): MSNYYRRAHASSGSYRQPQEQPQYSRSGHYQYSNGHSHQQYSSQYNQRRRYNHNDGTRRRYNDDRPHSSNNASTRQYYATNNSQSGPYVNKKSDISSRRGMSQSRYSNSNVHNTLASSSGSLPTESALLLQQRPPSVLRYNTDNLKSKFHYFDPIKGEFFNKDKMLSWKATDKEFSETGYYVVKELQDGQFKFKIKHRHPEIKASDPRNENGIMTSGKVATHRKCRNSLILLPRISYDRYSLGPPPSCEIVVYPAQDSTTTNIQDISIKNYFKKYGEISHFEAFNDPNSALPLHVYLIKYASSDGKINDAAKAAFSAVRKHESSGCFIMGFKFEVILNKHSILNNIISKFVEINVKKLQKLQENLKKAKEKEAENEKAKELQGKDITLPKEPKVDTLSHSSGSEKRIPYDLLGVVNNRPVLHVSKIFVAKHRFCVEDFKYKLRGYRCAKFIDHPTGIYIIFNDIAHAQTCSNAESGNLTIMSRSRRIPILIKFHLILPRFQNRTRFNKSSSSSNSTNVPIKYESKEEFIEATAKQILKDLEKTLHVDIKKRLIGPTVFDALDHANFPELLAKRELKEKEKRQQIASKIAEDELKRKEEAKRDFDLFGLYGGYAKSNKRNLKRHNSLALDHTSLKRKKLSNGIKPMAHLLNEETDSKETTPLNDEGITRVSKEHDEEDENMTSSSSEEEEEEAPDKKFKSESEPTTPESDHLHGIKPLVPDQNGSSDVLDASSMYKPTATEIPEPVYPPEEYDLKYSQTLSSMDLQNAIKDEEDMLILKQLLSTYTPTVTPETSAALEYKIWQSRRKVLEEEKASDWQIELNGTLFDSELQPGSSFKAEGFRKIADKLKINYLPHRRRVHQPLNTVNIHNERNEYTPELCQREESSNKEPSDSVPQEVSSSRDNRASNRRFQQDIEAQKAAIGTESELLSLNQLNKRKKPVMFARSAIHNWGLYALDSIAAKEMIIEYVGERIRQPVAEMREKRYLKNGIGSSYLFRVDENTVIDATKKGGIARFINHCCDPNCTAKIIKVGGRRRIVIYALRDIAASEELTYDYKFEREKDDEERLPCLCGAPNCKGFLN
Description: SEC. In general terms: In gel filtration, larger molecules generally elute earlier.

Assay [2] concerns the target T2, FLAG-Swd2 (purified) (S. cerevisiae, UniProt P36104 1-329).
T2 sequence (looked up): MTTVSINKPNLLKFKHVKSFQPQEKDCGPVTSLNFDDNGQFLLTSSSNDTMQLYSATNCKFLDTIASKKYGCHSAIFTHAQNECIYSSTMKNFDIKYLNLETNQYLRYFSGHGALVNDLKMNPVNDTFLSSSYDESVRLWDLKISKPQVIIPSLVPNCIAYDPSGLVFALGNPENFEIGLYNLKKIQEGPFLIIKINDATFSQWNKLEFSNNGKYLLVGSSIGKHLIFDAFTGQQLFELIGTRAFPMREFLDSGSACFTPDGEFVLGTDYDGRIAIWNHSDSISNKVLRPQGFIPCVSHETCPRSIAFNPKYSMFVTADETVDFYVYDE
Kind of assay: pull-down.

In assay [3] the target is T1, FLAG-Set1 (full length). Kind of assay: affinity co-purification by the FLAG tag.
The target of assay [4] is T3, GST-Set1 fragment, residues 356–568 (S. cerevisiae, UniProt P38827 356-568).
T3 sequence (looked up): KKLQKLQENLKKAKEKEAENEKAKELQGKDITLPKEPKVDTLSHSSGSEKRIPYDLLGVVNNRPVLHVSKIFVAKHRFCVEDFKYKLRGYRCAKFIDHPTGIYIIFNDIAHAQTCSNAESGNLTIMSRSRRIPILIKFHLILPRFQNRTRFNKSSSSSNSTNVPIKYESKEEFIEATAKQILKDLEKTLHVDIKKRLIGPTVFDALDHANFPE
Description: pull-down.

The target in assay [5] is T1, FLAG-Set1 (full length). Description: affinity co-purification by the FLAG tag. The source holds these as a separate data set.
For assay [6], the target named is T4, FLAG-Spp1 (purified) (S. cerevisiae, UniProt Q03012 1-353).
T4 sequence (looked up): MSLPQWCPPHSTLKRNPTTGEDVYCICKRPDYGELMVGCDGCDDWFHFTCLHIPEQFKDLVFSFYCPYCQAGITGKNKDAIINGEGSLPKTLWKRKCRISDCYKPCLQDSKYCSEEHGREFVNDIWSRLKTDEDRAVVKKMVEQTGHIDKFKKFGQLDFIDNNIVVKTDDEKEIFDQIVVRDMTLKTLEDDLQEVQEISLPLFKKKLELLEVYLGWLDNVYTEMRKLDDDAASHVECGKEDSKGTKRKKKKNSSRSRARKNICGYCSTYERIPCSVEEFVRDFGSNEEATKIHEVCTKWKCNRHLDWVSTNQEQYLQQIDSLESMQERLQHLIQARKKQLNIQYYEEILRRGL
Kind of assay: pull-down.

B1: Swd2 (natural protein, S. cerevisiae, UniProt P36104 1-329, looked up)
chain: T2 sequence (looked up)
On to B1, for which the binding result in assay [1] is on record as “binds”.

B2: GST-Set1 fragment, residues 1–229 (domain or fragment, S. cerevisiae, UniProt P38827 1-229, looked up)
chain: MSNYYRRAHASSGSYRQPQEQPQYSRSGHYQYSNGHSHQQYSSQYNQRRRYNHNDGTRRRYNDDRPHSSNNASTRQYYATNNSQSGPYVNKKSDISSRRGMSQSRYSNSNVHNTLASSSGSLPTESALLLQQRPPSVLRYNTDNLKSKFHYFDPIKGEFFNKDKMLSWKATDKEFSETGYYVVKELQDGQFKFKIKHRHPEIKASDPRNENGIMTSGKVATHRKCRNSL
For B2, in assay [2], the binding result is listed as “binds”.

B3: Spp1 (natural protein, S. cerevisiae, UniProt Q03012 1-353, looked up)
chain: T4 sequence (looked up)
Turning to B3, the binding result in assay [1] is reported as “binds”.

B4: Swd3 (natural protein, S. cerevisiae, UniProt P38123 1-315, looked up)
chain: MFQFVTPVGTQNGLKATCAKISPDGQFLAITQGLNILIYDINRRTVSQTLVTSHARPFSELCWSPDGQCIATASDDFSVEIIHLSYGLLHTFIGHTAPVISLTFNRKGNLLFTSSMDESIKIWDTLNGSLMKTISAHSEAVVSVDVPMNDSSILSSGSYDGLIRIFDAETGHCLKTLTYDKDWKRENGVVPISQVKFSENARYLLVKSLDGVVKIWDCIGGCVVRTFQVQPLEKGVLHHSCGMDFLNPEDGSTPLVISGYENGDIYCWNSDTKSLLQLLDGSLYHHSSPVMSIHCFGNIMCSLALNGDCCLWRWV
B4: the binding result in assay [3] is reported as “binds”.

B5: Shg1 (natural protein, S. cerevisiae, UniProt P38337 1-142, looked up)
chain: MAYNQEDSKRLSDKYKKEGHFDKLKREILSNPWNNTEENSESFEQALRKRVASTVKEMVNEDEELIFKNRGLTSALIESQLVKDNYLKLGSKMEGDNGDGEKKFDLDVYVRSKLQDPKLLEMIKGQLQETLNSYEEEANGST
As for B5, the binding result in assay [1] was “binds”.

B6: FLAG-Shg1 (purified) (natural protein, S. cerevisiae, UniProt P38337 1-142, looked up)
chain: B5 chain
For the molecule B6, in assay [4], the binding result was “binds”.

B7: Swd1 (natural protein, S. cerevisiae, UniProt P39706 1-426, looked up)
chain: MNILLQDPFAVLKEHPEKLTHTIENPLRTECLQFSPCGDYLALGCANGALVIYDMDTFRPICVPGNMLGAHVRPITSIAWSPDGRLLLTSSRDWSIKLWDLSKPSKPLKEIRFDSPIWGCQWLDAKRRLCVATIFEESDAYVIDFSNDPVASLLSKSDEKQLSSTPDHGYVLVCTVHTKHPNIIIVGTSKGWLDFYKFHSLYQTECIHSLKITSSNIKHLIVSQNGERLAINCSDRTIRQYEISIDDENSAVELTLEHKYQDVINKLQWNCILFSNNTAEYLVASTHGSSAHELYIWETTSGTLVRVLEGAEEELIDINWDFYSMSIVSNGFESGNVYVWSVVIPPKWSALAPDFEEVEENVDYLEKEDEFDEVDEAEQQQGLEQEEEIAIDLRTREQYDVRGNNLLVERFTIPTDYTRIIKMQSS
As to B7, the binding result in assay [5] is “binds”.

B8: GST-n-SET (Set1 residues 762–937) (domain or fragment, S. cerevisiae, UniProt P38827 762-937, looked up)
chain: MDLQNAIKDEEDMLILKQLLSTYTPTVTPETSAALEYKIWQSRRKVLEEEKASDWQIELNGTLFDSELQPGSSFKAEGFRKIADKLKINYLPHRRRVHQPLNTVNIHNERNEYTPELCQREESSNKEPSDSVPQEVSSSRDNRASNRRFQQDIEAQKAAIGTESELLSLNQLNKRK
In the case of B8, the binding result in assay [6] is recorded as “binds”.
